Here are results for 41 sequences from the nanobody polyreactivity screen of Harvey et al. (2022).

This data set in a line: yeast display, Sf9 membrane polyspecificity reagent, FACS + sequencing; frameworks hold sequencing errors. Put shortly: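 Synthetic nanobody libraries on Saccharomyces cerevisiae BJ5465 were galactose-induced for 36–48 hours, stained 1 hour at 4 °C with 10% biotinylated, detergent-solubilized Sf9 membrane reagent and enriched on streptavidin microbeads. FACS then separated cells into low and high (top ~1%) gates by anti-HA (expression) and streptavidin (reagent binding) fluorescence. Genes were colony-PCR amplified, MiSeq 2 × 250 sequenced and CDR-length filtered. A clone's polyreactivity label is that of its gate of origin.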
Turning to “QVQLQESGGGLVQAGGSLRLTCAASGSISRLDYMGWYRQASGKERELVAAIDNGSTTYYADSVKGRLTISRDNAKYTVYLQMNSLKPEDTAVYFCAAVRGRGGTHAYWGQGTQVTVSG”, the “polyreactivity (PSR sort gate)” value is reported as “low polyreactivity”.
As to “QVQLQESGGGLVQAGGSLRLTCAASGTITVLYKRGWFRQAPGKEREFVASINYGTSTYYADSVKGRFTVSRDSAINTVYLQMTSLKPEDTAVDYCAAAYRWQDVYRYWGQGTQVTVSS”, the “polyreactivity (PSR sort gate)” value is recorded as “low polyreactivity”.
With “QVQLQESGGGLVQAGGSLRPSCEASGNISLNVYMCWYRQAPGKEREFVAGTADGATTNYADSVKGRFTISRDNAKNTVFLQMNSLKPEDTAVYDCIKDYGYVQLRFYGPGYYWGQGTQVTVSS” the entry was “low polyreactivity”; with “QVQLQESGGGLVQAGGSLRQSCAASGSISATDSVGWYRQAPGKEREFVATIDGGANTNYADSVKGRFTISRDNAKNTVYLQMNSLKPEDTAVYYCAKDSQTARDFDYWGQGTQVTVSS”, “low polyreactivity”.
With “QVQLQESGGGLVQAGGSLRQSYAASGYIFPSLAMGWYRQAPGKEREFVAAIGRGSTNNYADSVKGRFTISRDNAKNTAYQQMNSLKPEDTAVYYCAADASPLTRNLYWGQGTQVTVSS” the entry was “low polyreactivity”; with “QVQLQESGGGLVQAGGSLRVSCAASGYISSWYPRGWYRQAPGKEREFVATISPGATTYYADSVKGRFTISRDYAKNTVYLQMNSLKPEDTAVYYCSAGQENNDFYSYWGQGTQVTVSS”, “low polyreactivity”; with “QVQLQESGGGLVQAGGSPRLSCAASDNIFPDSVMCWYRQAPGKERELVATIGFGATTNYADSVKGRFTISRDNAKNTVYLQMNSLKPEDTAVYYCAADPLNYEYFCYGGQGTQVTVSS”, “low polyreactivity”.
As for “QVQLQESGGGLVQAGGTITLGYEMGWYRQAPGKEREFVAGIDTGAITYYADSVKGRFTNSRDNAKNTVYLQMNSLKPEDTAVYYCAAIQTHTYAHSYWGQGTQVTVSS”, the entry is “high polyreactivity”; as for “QVQLQESGGGLVQAGGTLRLSCAASGSFSADEDMGWYRQAQGKEREFVAGISVGGNTNYADSVKGPFTISRENAKNTVYLQINSLKPEDTAVYYCAVLQDVYDALDFWAQGTQVTVSS”, “high polyreactivity”.
As for “QVQLQESGGGLVQAGGTLRLSCAASGSFSADEDMGWYRQAQGKEREFVAGISVGGNTNYADSVKGRFTISRENAKNTVYLELNSLKPEDTAVYYCAVLQDVYDALDYWAQGTQVTVSS”, the “polyreactivity (PSR sort gate)” value is recorded as “high polyreactivity”.
As for “QVQLQESGGGLVQAGVSLRLSCAASGYISIEEDISWFCQAPGKERELVASITYGAITYYADSVKGRLTISSDNAKNTVYRQMNCLKPEDTAEYYCAVSYDYQQYYVSCGQGTQVTVSS”, the entry is “low polyreactivity”; as for “QVQLQESGGGLVQASGSLRLSCAASGNIFPDYVMGWYRLAPGKEREFVANITGGSTTNYADSVKGRFTISRDNAKNTVYLQMNSLNPEDTAVYYCAVNFGTVVLYLYWGQGTQVTVSS”, “high polyreactivity”; as for “QVQLQESGGGLVQASGSPRLSCAASGNIFDADIMGWYRQAPGKQCELVASITDGGSTNYADSEKGRFTISSDNAKNTVYLQMNSLKPEDTAVYYCAAIAYPDIPTYFDYDSDYFYWGQGTHVTVSS”, “high polyreactivity”.
Regarding “QVQLQESGGGLVQAVCSRRLSCAASGSFSSRDAMGWYRQAPGTEREFVATIAVGGNTNYADSAKGRFTISRDNAKITVYLQMNSPKPEDTAVYYRAAVIDFDIFTYWGQGTQVTVRS”, the “polyreactivity (PSR sort gate)” value is “high polyreactivity”.
With “QVQLQESGGGLVQVGGSLRLSCAASGNIFIYGIMGWNRQAPGKERELVASINLGGITNYADSVKGRFTISRDNAKNTVYLQMISLKPEDTAVYYCAAYVVTGQNYGYWGQGTQVTVSS” the entry was “low polyreactivity”; with “QVQLQESGGGLVQVGGSLRLSCPSSGTIFIYGFLGWNRQAPGKERELVASINLGGITNYADSVKGRCTISRDNAKNTVNLQMISLKPEDTAVYYCATYVVTGQNYGYWGQGTQVTVSR”, “low polyreactivity”.
As for “QVQLQESGGGLVQVGGSLRLTCAASGTIFIYGFLGWNRQAPGKERELVASINLGGITNYADSVKGRFTISRDNANNTVYLQMISLKPEDTAVYFCAAYFVTGQNYGSWGQGTQVTVSS”, the entry is “low polyreactivity”; as for “QVQLQESGGGLVQVGGSQRLSCAASGNIFYNYAMGRYRHAQGKEHEFDATINHGTSINYADSVKGRFTISRDNAKNTVYLQMNSLKPEDTAVYYCAADLSWTDNLFYWGQGTQVTVSS”, “low polyreactivity”; as for “QVQLQESGGGLVRAGGSLRLSCAASGYISTSIAMGWYRQAPGKERELVASFGGGAITNYADSVKGFTISRDNGKNTVYLQMNCLKPEDTAVYYFAVYHGDRGYYSYWGQGTQVTVSS”, “low polyreactivity”.
As for “QVQLQESGGGMVQAGGSLLSCAASGTISYYREMGWYRQAPGKERELVAGIGVGTITYYADSVKGRFTIIRDNAKNTVYLQMNSLKPEDTAVYYCAAHIDGNDYHAYWGQGTQVTVSS”, the entry is “low polyreactivity”; as for “QVQLQESGGGPVQAGGSMRLSCAASGSISELRPMGWYREAPGKERELVAGISTGGSTNYADSVKGRFTISRDNAKKTVFLQMNSLKPEDTAVYYCAAASYGEGSYDYWGQGTQVTVRS”, “high polyreactivity”.
For “QVQLQESGGGQVQAGGSLRLSSAASGYIFAYNYMGWYRKAPGKERELVAAIVHGSTTNYADSVKGRFTISRDNAKNTVYLHMNNLKPEDTAVYYCAVDAERYYLHSYWGQGTQVTVSS”, the “polyreactivity (PSR sort gate)” value is listed as “high polyreactivity”.
For the sequence “QVQLQESGGGQVQAVGSLRLSCAPSGSNFVSDTMCWYRHAPGKDRELVASIGRGSTTNHADSVKGRFTISRDNAKNIVYLLMNSLKPEDTAVYYCAALESYGKYHGYWGQGTQVTVSS”, the “polyreactivity (PSR sort gate)” value is “low polyreactivity”.
As for “QVQLQESGGLVQAGGLRLSCAASGSVSYQEAMGWYRQAPGKERELVATISFGANTNYADSVKGRFTISRDNAKNTVYLHMNSRKPEDTAVYYCAAESLFDDYYGYWGQGTQVTVSS”, the entry is “low polyreactivity”; as for “QVQLQESGGRLVQADGSLRLSCAASGSIFGYYYMGWYRQAPGKDRELVATINICGITNYADSVKGRFTISRDNAKNTVYLQMNSLKPDDTAVYYCAADEYAQRDLGYWGQGTQVTVSS”, “low polyreactivity”.
As for “QVQLQESGGVLVQAGGSLRLSCAASGNILDADIMGWYRQAPGKERELVASITDGGSTNYADSVKGRFTISRDNAKNTVYLQMNSLKPEDTAVYYCAAIAYPDIPTYFDYDSEYFYWGQGTQVTVSS”, the entry is “low polyreactivity”; as for “QVQLQESGGVQAGGSLRLSCAESGYISRSDVMGWYRQAPGKERELVATINNGTITYYADSVKGRFTISRDNAKNTVYLQMNSLKPEDTAVHYCAVVQSDTDSLYYWGQGTQVTVSS”, “low polyreactivity”; as for “QVQLQESGGVQAGGSLRQSCAASGYISRSDVMGWYRQAPGKERELVATINNATITYYADSVKGRFTISRDNAKNTVYLQMNSLKPEDTAVHYFAVVQSDTDSLYYWGQGTQVTVSS”, “low polyreactivity”.
As for “QVQLQESGRRPGAAGGSPRMSCAASGNIFWVAVMGRYRQAPGKERELVASIGFGCTTYYADSVKCRFTISRDNAKNTVYLQMISLKPEDTAVYYCAAPLYDWGELDYWGQGTQVPVSS”, the entry is “low polyreactivity”.
On to “QVQLQESGSGLVQAGGSLRLSCAASGAIFPAYLMGWYRQAPGKERELVAGISYGSITYCADSVKGRFNISRDNEKNTVYLQMNSLKPEDTAVYYCAVWRPGGDEYYYWGQGTQVTVSS”, for which the “polyreactivity (PSR sort gate)” value is “low polyreactivity”.
With “QVQLQESRGGLVQAVRSLRLSCAASGTILYSLGMGWYRQAPGKRREFVASITRGTTTNYAESVKGRFTISRDNAKKTVYPQMNSLKAEDTGVSFCAGPPFGVSSYDYWGQGNQVTVSS” the entry was “low polyreactivity”.
For “QVQLQESRGGPVLAGGSLRLSCAASGTIFVRLDMGWYRQAPGKEREFVATIGSGSSTYYADSVKGSFTISRDNVKNTVYLQMNSLKPEDTAVYYCAVSAAEQSRHYYWDQGTQVTVSS”, the “polyreactivity (PSR sort gate)” value is “low polyreactivity”.
As for “QVQLQESVGGLVLAGGSLRLICSASANISVYGTMGWYRKAPGKEREFVATIDPGTNTNYADSVKDRFTISRDNAKNTVYLQMNSLKPEDTAVYYCEVEGGSDWPYRYWGQGTQVTVSS”, the entry is “low polyreactivity”; as for “QVQLQESVGGLVQAGGSLRLSCAASGSIFKVVDMGLYRQAPAKEREFVATIGEGGNTYYADSVKGRFTISRDNAKNTVYLQMNSLKPEDTAVYFYAVVLGTSYRYTYWGQGTLVTVSS”, “low polyreactivity”.
With “QVQLQESVGGLVQAGGSLRLSCAASGTISPQPAMGWYRPAPGKEREFVAGIDTGAITNYADSVKGRFTISRDNAKNTVYLQMNSLKPEDTAVYYCAVFPAAYDYYERYYTYWGLGTQVTVSS” the entry was “low polyreactivity”; with “QVQLQGSGGGLVQAAGSLRLSCAASGYIFQNVPMGWNRQAPGKERELVAGIDNGTSTNYADSVNGRFTISRDNAKKTVYLQMNSLKPEDTAVYYCAAAGQADDTLGYWGQGTQVTVSR”, “low polyreactivity”; with “QVQLQGSGGGLVQAGGSLRLSCAASGNIFDADIKGWYRQAPGKEIELVASITDGGSTNYADSVKGRFTISRDNAKNTVYLQMYSLKHEDTAVYYCAAIAYPDIPTYFDYDSDCFYWSQGTQVTVSS”, “high polyreactivity”.
In the case of “QVQLQGSGGGLVQAGGSLRMSCAASAYIFQNVPKGLNRKEPGKERELVAGIDNGTSTNYADSVNGRFTISRDNAKNSVYLEMKSLKPVDTAVYYCAAAGQADDTLGYWGQGTQVTVSS”, the “polyreactivity (PSR sort gate)” value is given as “low polyreactivity”.
As for “QVQLQGSGGGLVQAGGSLRQSCAASGYIFQNVPMGWNRQAPGKERELVAGIDNGTSTNYADSVNGRFTISRDNAKNTVYLQMNSLKPEDTAVYYCAAAGQADDTLGYWGQGTQVTVSS”, the entry is “low polyreactivity”; as for “QVQLQVSGGDLLQAGGSLRLSCAASGTIYGHTSMGWYRQAPGKEREFVAAITDGGNTNYADSVKGRFTISRDNAINTVYLQMISLKPEDTAVYYCEVLFSDVAYYAYWGQGTQVTVSS”, “low polyreactivity”.
On to “QVQLQVSGGGLVQAGGSLRLNSAASGAIFLTSEMGWYRQAPGKERELVAAIATGTSTNYADSVKGLFTISRDNAKNTVYLQMNSLKPEDTAVYYCATYHYWGQGTQVTVSS”, for which the “polyreactivity (PSR sort gate)” value is “low polyreactivity”.
